Reference: IntAct's records for PubMed 20133654

B1: Obscurin-like protein 1 (Homo sapiens), O75147 (parent)
chain: MKASSGDQGSPPCFLRFPRPVRVVSGAEAELKCVVLGEPPPVVVWEKGGQQLAASERLSFPADGAEHGLLLTAALPTDAGVYVCRARNAAGEAYAAAAVTVLEPPASDPELQPAERPLPSPGSGEGAPVFLTGPRSQWVLRGAEVVLTCRAGGLPEPTLYWEKDGMALDEVWDSSHFALQPGRAEDGPGASLALRILAARLPDSGVYVCHARNAHGHAQAGALLQVHQPPESPPADPDEAPAPVVEPLKCAPKTFWVNEGKHAKFRCYVMGKPEPEIEWHWEGRPLLPDRRRLMYRDRDGGFVLKVLYCQAKDRGLYVCAARNSAGQTLSAVQLHVKEPRLRFTRPLQDVEGREHGIAVLECKVPNSRIPTAWFREDQRLLPCRKYEQIEEGTVRRLIIHRLKADDDGIYLCEMRGRVRTVANVTVKGPILKRLPRKLDVLEGENAVLLVETLEAGVEGRWSRDGEELPVICQSSSGHMHALVLPGVTREDAGEVTFSLGNSRTTTLLRVKCVKHSPPGPPILAEMFKGHKNTVLLTWKPPEPAPETPFIYRLERQEVGSEDWIQCFSIEKAGAVEVPGDCVPSEGDYRFRICTVSGHGRSPHVVFHGSAHLVPTARLVAGLEDVQVYDGEDAVFSLDLSTIIQGTWFLNGEELKSNEPEGQVEPGALRYRIEQKGLQHRLILHAVKHQDSGALVGFSCPGVQDSAALTIQESPVHILSPQDRVSLTFTTSERVVLTCELSRVDFPATWYKDGQKVEESELLVVKMDGRKHRLILPEAKVQDSGEFECRTEGVSAFFGVTVQDPPVHIVDPREHVFVHAITSECVMLACEVDREDAPVRWYKDGQEVEESDFVVLENEGPHRRLVLPATQPSDGGEFQCVAGDECAYFTVTITDVSSWIVYPSGKVYVAAVRLERVVLTCELCRPWAEVRWTKDGEEVVESPALLLQKEDTVRRLVLPAVQLEDSGEYLCEIDDESASFTVTVTEPPVRIIYPRDEVTLIAVTLECVVLMCELSREDAPVRWYKDGLEVEESEALVLERDGPRCRLVLPAAQPEDGGEFVCDAGDDSAFFTVTVTAPPERIVHPAARSLDLHFGAPGRVELRCEVAPAGSQVRWYKDGLEVEASDALQLGAEGPTRTLTLPHAQPEDAGEYVCETRHEAITFNVILAEPPVQFLALETTPSPLCVAPGEPVVLSCELSRAGAPVVWSHNGRPVQEGEGLELHAEGPRRVLCIQAAGPAHAGLYTCQSGAAPGAPSLSFTVQVAEPPVRVVAPEAAQTRVRSTPGGDLELVVHLSGPGGPVRWYKDGERLASQGRVQLEQAGARQVLRVQGARSGDAGEYLCDAPQDSRIFLVSVEEPLLVKLVSELTPLTVHEGDDATFRCEVSPPDADVTWLRNGAVVTPGPQVEMAQNGSSRILTLRGCQLGDAGTVTLRAGSTATSARLHVRETELLFLRRLQDVRAEEGQDVCLEVETGRVGAAGAVRWVRGGQPLPHDSRLSMAQDGHIHRLFIHGVILADQGTYGCESHHDRTLARLSVRPRQLRVLRPLEDVTISEGGSATFQLELSQEGVTGEWARGGVQLYPGPKCHIHSDGHRHRLVLNGLGLADSGCVSFTADSLRCAARLIVREVPVTIVRGPHDLEVTEGDTATFECELSQALADVTWEKDGNALTPSPRLRLQALGTRRLLQLRRCGPSDAGTYSCAVGTARAGPVRLTVRERTVAVLSELRSVSAREGDGATFECTVSEVETTGRWELGGRPLRPGARVRIRQEGKKHILVLSELRAEDAGEVRFQAGPAQSLALLEVEALPLQMCRHPPREKTVLVGRRAVLEVTVSRSGGHVCWLREGAELCPGDKYEMRSHGPTHSLVIHDVRPEDQGTYCCQAGQDSTHTRLLVEGN

Variants of: B1
Details: with titin_human TTN

effect of a mutation on the interaction	Variant
decreasing interaction	F17R
